Results reported in article PMC10492824.

Key:
[1] = target: Zn-containing form of the soluble domain of the Rieske-type iron-sulfur protein PetA from Thermochromatium tepidum (Thermochromatium tepidum); assay: SEC-MALS; Superdex 200 Increase 10/300 GL, buffer A, 0.5 mL/min, 24 °C; about 100 µL of 7.3 mg/mL protein (first colorless SEC fraction) injected
[2] = target: Zn-containing form of the soluble domain of the Rieske-type iron-sulfur protein PetA from Thermochromatium tepidum (Thermochromatium tepidum); assay: SEC; purification step after removal of the His-tag; HiLoad 16/60 Superdex 75 in buffer A (10 mM Tris-HCl pH 7.6, 150 mM NaCl); masses estimated with low molecular weight marker mixture

stoichiometry N [1]: 2
stoichiometry N [2]: 2
Substance: Zn-containing form of the soluble domain of the Rieske-type iron-sulfur protein PetA from Thermochromatium tepidum (domain or fragment)
